{"source": "patent US20090087417A1", "about": "“METHODS FOR PROMOTING DOPAMINERGIC NEURONAL DEVELOPMENT BY USING NG4A-SUBFAMILY AND WNT-LIGANDS” (priority 2002, published 2009)", "molecules": {"B1": {"name": "Wnt-7a: Partially purified / conditioned media from Wnt-7a overexpressing fibroblast cell line (protein, UniProt P24383 32-349, looked up)", "Protein Wnt-7a": "LGASIICNKIPGLAPRQRAICQSRPDAIIVIGEGSQMGLDECQFQFRNGRWNCSALGERTVFGKELKVGSREAAFTYAIIAAGVAHAITAACTQGNLSDCGCDKEKQGQYHRDEGWKWGGCSADIRYGIGFAKVFVDAREIKQNARTLMNLHNNEAGRKILEENMKLECKCHGVSGSCTTKTCWTTLPQFRELGYVLKDKYNEAVHVEPVRASRNKRPTFLKIKKPLSYRKPMDTDLVYIEKSPNYCEEDPVTGSVGTQGRACNKTAPQASGCDLMCCGRGYNTHQYARVWQCNCKFHWCCYVKCNTCSERTEMYTCK", "modifications": "conditioned medium", "notes": "Partially purified / conditioned media from Wnt-7a overexpressing fibroblast cell line"}, "B2": {"name": "Wnt-2: Partially purified / conditioned media from Wnt-2 overexpressing fibroblast cell line (protein, UniProt P21552 26-360, looked up)", "Protein Wnt-2": "SWWYMRATGGSSRVMCDNVPGLVSRQRQLCHRHPDVMRAIGLGVAEWTAECQHQFRQHRWNCNTLDRDHSLFGRVLLRSSRESAFVYAISSAGVVFAITRACSQGELKSCSCDPKKKGSAKDSKGTFDWGGCSDNIDYGIKFARAFVDAKERKGKDARALMNLHNNRAGRKAVKRFLKQECKCHGVSGSCTLRTCWLAMADFRKTGDYLWRKYNGAIQVVMNQDGTGFTVANKRFKKPTKNDLVYFENSPDYCIRDREAGSLGTAGRVCNLTSRGMDSCEVMCCGRGYDTSHVTRMTKCECKFHWCCAVRCQDCLEALDVHTCKAPKSADWATPT", "modifications": "conditioned medium", "notes": "Partially purified / conditioned media from Wnt-2 overexpressing fibroblast cell line"}, "B3": {"name": "Wnt-1: Partially purified conditioned media from stable fibroblast cell line engineered to secrete Wnt-1 ligand (protein)", "chain": "ANSSGRWWGIVNIASSTNLLTDSKSLQLVLEPSLQLLSRKQRRLIRQNPGILHSVSGGLQSAVRECKWQFRNRRWNCPTAPGPHLFGKIVNRGCRETAFIFAITSAGVTHSVARSCSEGSIESCTCDYRRRGPGGPDWHWGGCSDNIDFGRLFGREFVDSGEKGRDLRFLMNLHNNEAGRTTVFSEMRQECKCHGMSGSCTVRTCWMRLPTLRAVGDVLRDRFDGASRVLYGNRGSNRASRAELLRLEPEDPAHKPPSPHDLVYFEKSPNFCTYSGRLGTAGTAGRACNSSSPALDGCELLCCGRGHRTRTQRVTERCNCTFHWCCHVSCRNCTHTRVLHECL", "modifications": "left off: small tags and cut ends"}, "B4": {"name": "Wnt-5a: Partially purified conditioned media from stable fibroblast cell line engineered to secrete Wnt-5a ligand (protein)", "chain": "IIGAQPLCSQLAGLSQGQKKLCHLYQDHMQYIGEGAKTGIKECQYQFRHRRWNCSTVDNTSVFGRVMQIGSRETAFTYAVSAAGVVNAMSRACREGELSTCGCSRAARPKDLPRDWLWGGCGDNIDYGYRFAKEFVDARERERIHAKGSYESARILMNLHNNEAGRRTVYNLADVACKCHGVSGSCSLKTCWLQLADFRKVGDALKEKYDSAAAMRLNSRGKLVQVNSRFNSPTTQDLVYIDPSPDYCVRNESTGSLGTQGRLCNKTSEGMDGCELMCCGRGYDQFKTVQTERCHCKFHWCCYVKCKKCTEIVDQFVCK", "modifications": "left off: small tags and cut ends"}}, "tested_on": "E14.5 VM precursor cultures", "assay": "Real time RT-PCR of gene expression in Wnt-treated VM precursor cultures", "format": "cell-based, rat", "settings": "3 days in vitro", "from_the_text": "Total RNA was isolated from confluent T1A astrocyte cultures derived from ventral mesencephalon, dorsal mesencephalon and cortex of P1 rats and from tissue dissected from E10.5, E11.5, E13.5, E15.5 and P1 ventral and dorsal mesencephalon, and E14, E16, E18 and P1 cortex, using RNeasy extraction kit (Qiagen, Hilden, Germany). Total RNA was also extracted from E14.5 VM precursor cultures (7.5 million cells in 100 mm dishes) treated with wnts for 3 days in vitro (triplicate determination). For the reverse transcription, […] of total RNA was initially treated with 1 unit RQ1 Rnase-free DNAse (Promega, Madison, USA) for 40 minutes. The DNAse was inactivated by the addition of 1 μl of EDTA 0.02M and incubation at 65° C. for 10 minutes. 0.5 μg random primers (Life Technologies, Grand Island, N.Y., USA) were then added, and the mixture was incubated at 70° C. for 10 minutes. Each sample was then equally divided in two tubes, a cDNA reaction tube and a negative control tube. A master mix containing 1× First-Strand Buffer (Life Technologies, Grand Island, N.Y., USA), 0.01M DTT (Life Technologies, Grand Island, N.Y., USA) and 0.5 mM dNTPS (Promega, Madison, USA) was then added to both cDNA and RT− tubes and incubated at 25° C. for 10 minutes, followed by a 2 minutes incubation at 42° C. 200 units of Superscript II reverse transcriptase (Life Technologies, Grand Island, N.Y., USA) were then added only to the cDNA tubes and all sample were incubated at 42° C. for 50 minutes. Superscript II was inactivated with an incubation for 10 minutes at 70° C. Both cDNA and RT− were then diluted 10 times, for further analysis.\nReal-time PCR was performed in triplicates, with 1 μl 1:10 diluted cDNA and RT−, in a total volume of 25 μl. Each PCR reaction consisted on 1×PCR buffer (Life Technologies, Grand Island, N.Y., USA), 3 mM MgCl2 (Life Technologies, Grand Island, N.Y., USA), 0.2 mM dNTPs (Promega, Madison, USA), 0.3 μM each of the forward and reverse primers, 1 unit Platinum Taq DNA polymerase (Life Technologies, Grand Island, N.Y., USA) and 1×SYBR Green (Molecular Probes, Leiden, The Netherlands). The PCR was performed at 94° C. for 2 min and then for 35-40 cycles at 94° C. for 30 s, at 60° C. for 30-45 s, at 72° C. for 45-60 s and at 80° C. for 15 s (for SYBR Green detection) on the ABI PRISM 5700 Detection System (PE Applied Biosystems, Foster City, Calif., USA). Other annealing temperatures included 54° C. for Wnt 5a, 57° C. for p27, 62° C. for Cyclin D1, 61° C. for Cyclin D2 and 65° C. for p57. A melting curve was obtained for each PCR product after each run, in order to confirm that the SYBR Green signal corresponded to a unique and specific amplicon. The specificity of the PCR product was verified by sequencing.\nStandard curves were generated in every 96-wells plate real time PCR run, using serial 3-fold dilutions of a reverse transcribed RNA or plasmid containing the sequence of interest for every probe. The resulting standard curve plots were then used to convert the Cts (number of PCR cycles needed for a given template to be amplified to an established fluorescence threshold) into arbitrary quantities of initial template of a given sample.\nThe expression levels were obtained by subtracting the RT− value for each sample from the corresponding RT+ value and then dividing that number by the value of the house-keeping gene, 18S, obtained for every sample in parallel assays.\nStatistical analysis of the results was performed by one way ANOVA. Fisher's protected least significant difference was used post hoc to identify specific points at which the different developmental stages differed from the earliest, only when significant interactions occurred. Significance for all tests was assumed at the level of p<0.05 (*p<0.05; **p<0.001; ***p<0.000).", "data": [{"molecule": "B1", "values": [{"measurement": "cyclin D1 mRNA", "value": "increased"}, {"measurement": "cyclin D2 mRNA", "value": "not regulated"}, {"measurement": "cyclin D3 mRNA", "value": "No regulation"}, {"measurement": "p27 mRNA", "value": "decreased"}, {"measurement": "p57 mRNA", "value": "decreased"}]}, {"molecule": "B2", "values": [{"measurement": "cyclin D1 mRNA", "value": "slight upregulation"}, {"measurement": "cyclin D2 mRNA", "value": "increases"}, {"measurement": "cyclin D3 mRNA", "value": "No regulation"}, {"measurement": "p27 mRNA", "value": "increases"}, {"measurement": "p57 mRNA", "value": "increases"}]}, {"molecule": "B3", "values": [{"measurement": "c-ret expression", "value": "not"}, {"measurement": "cyclin D1 mRNA", "value": "upregulated"}, {"measurement": "cyclin D2 mRNA", "value": "not affected"}, {"measurement": "cyclin D3 mRNA", "value": "upregulated"}, {"measurement": "expression of GFR[…]1", "value": "repressed"}, {"measurement": "expression of NCAM", "value": "repressed"}, {"measurement": "p21 mRNA expression", "value": "neither affected"}, {"measurement": "p27 mRNA", "value": "downregulated"}, {"measurement": "p57 mRNA", "value": "downregulated"}]}, {"molecule": "B4", "values": [{"measurement": "Ptx3 mRNA", "value": "increased"}, {"measurement": "c-ret expression", "value": "upregulated"}, {"measurement": "cyclin D1 mRNA", "value": "not"}, {"measurement": "cyclin D2 mRNA", "value": "not affected"}, {"measurement": "cyclin D3 mRNA", "value": "not"}, {"measurement": "expression of GFR[…]1", "value": "maintained"}, {"measurement": "expression of NCAM", "value": "maintained"}, {"measurement": "p21 mRNA expression", "value": "neither affected"}, {"measurement": "p57 mRNA", "value": "not"}]}]}
